From publication PMC7515719, “The crystal structure of human XPG, the xeroderma pigmentosum group G endonuclease, provides insight into nucleotide excision DNA repair” come the findings set out here.

For one series, the target named is T1, XPGn1 D812A (Homo sapiens, UniProt P28715 1-112+=GT+750-990, D812A;internal_change).
T1 sequence: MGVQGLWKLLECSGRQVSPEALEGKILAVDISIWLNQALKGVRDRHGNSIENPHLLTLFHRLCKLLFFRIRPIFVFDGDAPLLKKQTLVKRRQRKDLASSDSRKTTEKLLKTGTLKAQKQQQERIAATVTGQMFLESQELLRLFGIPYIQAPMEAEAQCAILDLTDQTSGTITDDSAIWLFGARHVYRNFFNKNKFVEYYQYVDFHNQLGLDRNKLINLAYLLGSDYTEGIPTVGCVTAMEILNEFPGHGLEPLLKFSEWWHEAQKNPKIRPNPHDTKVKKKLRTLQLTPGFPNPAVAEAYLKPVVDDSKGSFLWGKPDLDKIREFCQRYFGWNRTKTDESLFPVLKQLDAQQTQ
Briefly: crystal structure; C1, space group I422, one complex per ASU; EMSA: 2.5 uM DNA, 1-8 uM protein, buffer H (composition not in material) + 15% glycerol, 25 C, 30 min, 7% native PAGE; crystals: complex in 20 mM Tris pH 7.5, 100 mM KCl, grown in 5% PEG 3350, 50 mM sodium citrate pH 4.0, 22 C. As to conditions: protein: recombinant; tags: N-terminal His-3C cleaved, leaves Gly-Pro-His before Met1; fork: 10 bp duplex, 1 nt 5' arm (strand 1), 1 nt 3' arm (strand 2).

The next series addresses T2, XPGn3 K913A (Homo sapiens, UniProt P28715 2-112+=GT+750-990, K913A;internal_change).
T2 sequence: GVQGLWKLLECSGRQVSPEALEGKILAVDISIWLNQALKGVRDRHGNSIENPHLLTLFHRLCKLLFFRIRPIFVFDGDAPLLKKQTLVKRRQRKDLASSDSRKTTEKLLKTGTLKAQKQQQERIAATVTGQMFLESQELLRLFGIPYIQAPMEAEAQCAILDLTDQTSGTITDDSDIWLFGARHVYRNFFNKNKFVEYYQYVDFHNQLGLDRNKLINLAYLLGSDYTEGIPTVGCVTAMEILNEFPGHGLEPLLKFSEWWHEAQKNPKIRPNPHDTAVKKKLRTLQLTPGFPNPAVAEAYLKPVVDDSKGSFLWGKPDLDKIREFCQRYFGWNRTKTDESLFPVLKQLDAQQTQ
As to the kind of experiment: EMSA; minimal or null effect; EMSA: 2.5 uM DNA, 1-8 uM protein, buffer H (composition not in material) + 15% glycerol, 25 C, 30 min, 7% native PAGE; crystals: complex in 20 mM Tris pH 7.5, 100 mM KCl, grown in 5% PEG 3350, 50 mM sodium citrate pH 4.0, 22 C. The following applies: protein: recombinant; tags: N-terminal His-TEV cleaved; fork: 12 bp duplex, 4 nt 5' arm (strand 1), 5 nt 3' arm (strand 2). (In EMSA bound probe runs differently from free probe, usually more slowly.)

The next series has as its target T3, XPGn3 K916A (Homo sapiens, UniProt P28715 2-112+=GT+750-990, K916A;internal_change).
T3 sequence: T2 sequence with A277K, K280A
The series is described as above. As to conditions: protein: recombinant; tags: N-terminal His-TEV cleaved; fork: 12 bp duplex, 4 nt 5' arm (strand 1), 5 nt 3' arm (strand 2).

Another series deals with T4, XPGn3 K917E (Homo sapiens, UniProt P28715 2-112+=GT+750-990, K917E;internal_change).
T4 sequence: T2 sequence with A277K, K281E
Described as above. As to conditions: protein: recombinant; tags: N-terminal His-TEV cleaved; fork: 12 bp duplex, 4 nt 5' arm (strand 1), 5 nt 3' arm (strand 2).

A further series has as its target T5, XPGn3 K972E (Homo sapiens, UniProt P28715 2-112+=GT+750-990, K972E;internal_change).
T5 sequence: T2 sequence with A277K, K336E
Briefly: EMSA; only cleavage mildly lowered; EMSA: 2.5 uM DNA, 1-8 uM protein, buffer H (composition not in material) + 15% glycerol, 25 C, 30 min, 7% native PAGE; crystals: complex in 20 mM Tris pH 7.5, 100 mM KCl, grown in 5% PEG 3350, 50 mM sodium citrate pH 4.0, 22 C. As to conditions: protein: recombinant; tags: N-terminal His-TEV cleaved; fork: 12 bp duplex, 4 nt 5' arm (strand 1), 5 nt 3' arm (strand 2).

Another series has as its target T6, XPGn3 K828E (Homo sapiens, UniProt P28715 2-112+=GT+750-990, K828E;internal_change).
T6 sequence: T2 sequence with K192E, A277K
The description is as above. As to conditions: protein: recombinant; tags: N-terminal His-TEV cleaved; fork: 12 bp duplex, 4 nt 5' arm (strand 1), 5 nt 3' arm (strand 2).

For the next series, the target named is T7, XPGn3 D812A (Homo sapiens, UniProt P28715 2-112+=GT+750-990, D812A;internal_change).
T7 sequence: T2 sequence with D176A, A277K
As to the kind of experiment: EMSA; no influence on binding; EMSA: 2.5 uM DNA, 1-8 uM protein, buffer H (composition not in material) + 15% glycerol, 25 C, 30 min, 7% native PAGE; crystals: complex in 20 mM Tris pH 7.5, 100 mM KCl, grown in 5% PEG 3350, 50 mM sodium citrate pH 4.0, 22 C. As to conditions: protein: recombinant; tags: N-terminal His-TEV cleaved; fork: 12 bp duplex, 4 nt 5' arm (strand 1), 5 nt 3' arm (strand 2).

The target of a further series is T8, XPGn3 R823A (Homo sapiens, UniProt P28715 2-112+=GT+750-990, R823A;internal_change).
T8 sequence: T2 sequence with R187A, A277K
As to the kind of experiment: EMSA; value from '~10% reduction'; EMSA: 2.5 uM DNA, 1-8 uM protein, buffer H (composition not in material) + 15% glycerol, 25 C, 30 min, 7% native PAGE; crystals: complex in 20 mM Tris pH 7.5, 100 mM KCl, grown in 5% PEG 3350, 50 mM sodium citrate pH 4.0, 22 C. As to conditions: protein: recombinant; tags: N-terminal His-TEV cleaved; fork: 12 bp duplex, 4 nt 5' arm (strand 1), 5 nt 3' arm (strand 2).

Positions count from the first letter of the chain named.

B1: DNA-1 splayed-arm (dsDNA)
DNA 1: TTGCAGAGTTC
DNA 2: GAACTCTGCAG
Regarding B1, the binding result with XPGn1 D812A is “binds”.

B2: DNA-2 splayed-arm (dsDNA)
DNA 1: TACTTGCAGAGTTCGC
DNA 2: GCGAACTCTGCAGAGCA
For the molecule B2, the binding result with XPGn3 K913A, with XPGn3 K916A, in the series with XPGn3 K917E, with XPGn3 K972E, with XPGn3 K828E and with XPGn3 D812A was “binds” each time. Besides, the binding signal with XPGn3 R823A was ~90 % of wild-type binding.
